Legend:
Test in all cases: pull-down; 6.6 uM I16C-Alexa546-ARR1 mixed with 0.1 uM BBS5L-GST, BBS5-GST or GST, overnight at 4°C; immunoprecipitated with anti-GST antibody on magnetic beads; fluorescence of the captured arrestin1 measured
[1] = target: BBS5L-GST (splice variant of BBS5 in fusion with glutathione-S-transferase) (mouse)
[2] = target: BBS5L-GST phosphorylated by protein kinase C (mouse)
[3] = target: T1, I16C-Alexa546-ARR1 (I16C-substituted bovine arrestin1 labeled with AlexaFluor-546) (bovine, UniProt P08168 1-404, I16C, AlexaFluor-546 on the reactive sulfhydryl group generated by I16C); conditions: both partners purified
T1 construct: arrestin1 (S-arrestin), bovine, with the substitution I16C; also called ARR1-Alexa546; fluorescently labeled arrestin1
T1 sequence (P08168 whole entry I16C): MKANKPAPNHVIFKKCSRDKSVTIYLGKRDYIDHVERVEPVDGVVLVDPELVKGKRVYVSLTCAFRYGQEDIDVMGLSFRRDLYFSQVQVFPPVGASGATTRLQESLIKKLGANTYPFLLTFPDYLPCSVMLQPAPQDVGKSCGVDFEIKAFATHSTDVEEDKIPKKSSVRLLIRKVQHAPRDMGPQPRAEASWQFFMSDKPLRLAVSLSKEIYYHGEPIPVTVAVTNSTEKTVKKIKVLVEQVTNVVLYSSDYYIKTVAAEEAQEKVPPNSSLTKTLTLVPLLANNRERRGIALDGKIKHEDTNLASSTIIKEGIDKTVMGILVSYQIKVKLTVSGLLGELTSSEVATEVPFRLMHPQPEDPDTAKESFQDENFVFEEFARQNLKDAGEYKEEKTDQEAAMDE

amount of arrestin1 bound relative to BBS5 [1]	percent reduction of arrestin1 pull-down against unphosphorylated BBS5L [2]	binding result [3]	Molecule
0.5 fold of BBS5	31%		I16C-Alexa546-ARR1 (I16C-substituted bovine arrestin1 labeled with AlexaFluor-546) (from UniProt P08168 1-404) (natural protein)
		binds	BBS5-GST (Bardet-Biedl Syndrome 5 protein in fusion with glutathione-S-transferase) (natural protein, mouse, UniProt Q9CZQ9 1-341, looked up, BBS5, mouse; open-reading frame amplified from murine retinal cDNA; cDNA for His-tagged BBS5 was cloned into pGEX-4T-1 at the EcoRI site, fused to the C-terminus of GST; not shown: GST, N-terminal, kept) MSVLDVLWEDRDVRFDVSSQQMKTRPGEVLIDCLDSIEDTKGNNGDRGRLLVTNLRIIWHSLALPRVNLSIGYNCILNITTRTANSKLRGQTEALYILTKCNTTRFEFIFTNLVPGSPRLFTSVIAVHRAYETSKMYRDFKLRSAVIQNKQLRLLPQEHVYDKINGVWNLSSDQGNLGTFFITNVRIVWHANMNDSFNVSIPYLQIRSIKIRDSKFGLALVIESSQQSGGYVLGFKIDPVEKLQESVKEINSLHKVYSASPIFGVNYEMEEKPQPLEALTVEQIQDDVEIDSDDHTDAFVAYFADGNKQQDREPVFSEELGLAIEKLKDGFTLQGLWEVMS

From PMC4750968, “A Splice Variant of Bardet-Biedl Syndrome 5 (BBS5) Protein that Is Selectively Expressed in Retina” (PLoS ONE, 2016)
